Laboratory results: patent publication US20090286314A1 (Innovent, published 2009)
Where a chain is given by its changes, count along the chain named.

B1: double mutant of R-5 (Mut B) (other)
chain: MSLPATHDLHISGSINGHEFDLEGSGKGNAKEGYQELHLKSNKGDLSFSPWILVPNIGYGFYQYLPFPDGAMSPYQAAMHDGSGYVMHRSMQFEDGAMLHSDHRYIYKGNHIKGEFRLKGSGFPADGPVMTNSLTAADWCVDKLLYPNDNTIIGKFDWTYTTTSGKRYQSDVQTTVTFGKPIAADILKKQPMFVFRKVELKHTKTELNFKQWQKAFQDIA
notes: Expressed in E. coli and purified; Eluted as a dimer; also called dimeric mutant
B2: triple mutant of R-5 (Mut C) (other)
chain: B1 chain with D157K
notes: Expressed in E. coli and purified; Eluted as a monomer; also called R-5C; monomeric mutant

Columns and labels:
[1] = biological target: the molecule itself; assay: gel chromatography, HiPrep Sephacryl S-200, high protein concentrations (self-association)
From the text: (§1) The wild-type fluorescent proteins have a tendency to self-aggregate and form tetramers. Among the limited number of new FPs that we so far have analyzed, no monomeric variant has been observed, but the tendency to self-aggregate appears to vary among individual variants. In order to generate a pure monomeric variant, which would be advantageous for certain applications, the protein R-5 (SEQ ID NO: 79) was subjected to limited mutagenesis after extensive 3-D modelling. Three amino acid residues were chosen as suitable candidates for mutagenesis, and three mutants with single, double and triple mutations were constructed and custom made by an external laboratory. After expression in E. coli and purification their aggregation state were analyzed by gel-chromatography on a HiPrep Sephacryl S-200 column. The conditions used (i.e. high protein concentrations) were chosen to promote aggregation, and EGFP, which is a weak forming dimer, did elute as a peak with an apparent molecular weight of ˜60 kDa, i.e. as a dimer.

[2] = biological target: the molecule itself; assay: gel chromatography, HiPrep Sephacryl S-200, high protein concentrations chosen to promote aggregation (self-association)
From the text: as §1

| Protein | binding result [1] | binding result [2] |
| --- | --- | --- |
| B1 | binds |  |
| B2 |  | no binding |
